Data on 1 sequence can be found in article PMC3466194.

The series has as its target TetR (Tet Repressor) (UniProt P04483). Kind of series: not stated in material (in vitro binding). The note with it: not given in the material held (binding assay methods absent).

Sequence of TetR (Tet Repressor) (P04483 whole entry): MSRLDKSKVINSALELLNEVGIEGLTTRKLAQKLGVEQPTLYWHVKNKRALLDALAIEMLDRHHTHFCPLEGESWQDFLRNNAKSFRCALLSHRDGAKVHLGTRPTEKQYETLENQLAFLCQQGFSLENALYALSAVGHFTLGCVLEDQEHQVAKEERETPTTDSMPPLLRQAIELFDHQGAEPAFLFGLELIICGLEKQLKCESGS

As to “GGGCUUGUUACCAGACAACCAUUACUUAUCCUAUCAAUCUGCCUUAUCCAAAGAUCCAAACGAAAAGAGAGACCACAUGGUCUUGUUAGAAUUUGUUACUUAAUCUAGAAAUUAUCUAGGAUCCAGGCAGAGAAAGGUCGAUACGGACGGAAUGUGAUGGCCUGGAUCCAACACAAAACUCGAGAACAUCCCGGGAAAAUCUAGAAUUCCUUCGAUAGAUCAAUUUUUUUCUUUUCUCUUUCCCCAUCCUUUACGCUAAAAUAAUAGUUUAUUUUAUUUUUUGAAUAUUUUUUAUUUAUAUACGUAUAUAUAGACUAUUAUUUAUCUUUUAAUGAUU [3'UTR + aptamer (vYFPΔ-5-1.2 bases 613-946)]”, the Kd (usually the constant that tells how readily two partners part at equilibrium) is 0.8 nM. This lies in the sub-nanomolar range.
